B1: full-length human amphiphysin 1 (natural protein, UniProt P49418 1-695, looked up)
chain: MADIKTGIFAKNVQKRLNRAQEKVLQKLGKADETKDEQFEEYVQNFKRQEAEGTRLQRELRGYLAAIKGMQEASMKLTESLHEVYEPDWYGREDVKMVGEKCDVLWEDFHQKLVDGSLLTLDTYLGQFPDIKNRIAKRSRKLVDYDSARHHLEALQSSKRKDESRISKAEEEFQKAQKVFEEFNVDLQEELPSLWSRRVGFYVNTFKNVSSLEAKFHKEIAVLCHKLYEVMTKLGDQHADKAFTIQGAPSDSGPLRIAKTPSPPEEPSPLPSPTASPNHTLAPASPAPARPRSPSQTRKGPPVPPLPKVTPTKELQQENIISFFEDNFVPEISVTTPSQNEVPEVKKEETLLDLDFDPFKPEVTPAGSAGVTHSPMSQTLPWDLWTTSTDLVQPASGGSFNGFTQPQDTSLFTMQTDQSMICNLAESEQAPPTEPKAEEPLAAVTPAVGLDLGMDTRAEEPVEEAVIIPGADADAAVGTLVSAAEGAPGEEAEAEKATVPAGEGVSLEEAKIGTETTEGAESAQPEAEELEATVPQEKVIPSVVIEPASNHEEEGENEITIGAEPKETTEDAAPPGPTSETPELATEQKPIQDPQPTPSAPAMGAADQLASAREASQELPPGFLYKVETLHDFEAANSDELTLQRGDVVLVVPSDSEADQDAGWLVGVKESDWLQYRDLATYKGLFPENFTRRLD
modifications: Alexa 488 C5-maleimide
notes: amphiphysin 1, human, full length; Plasmid from Pietro De Camilli's lab; also called Amph1; Amph1-Alexa 488
B2: FBP17 (natural protein, UniProt Q96RU3 1-617, looked up)
chain: MSWGTELWDQFDNLEKHTQWGIDILEKYIKFVKERTEIELSYAKQLRNLSKKYQPKKNSKEEEEYKYTSCKAFISNLNEMNDYAGQHEVISENMASQIIVDLARYVQELKQERKSNFHDGRKAQQHIETCWKQLESSKRRFERDCKEADRAQQYFEKMDADINVTKADVEKARQQAQIRHQMAEDSKADYSSILQKFNHEQHEYYHTHIPNIFQKIQEMEERRIVRMGESMKTYAEVDRQVIPIIGKCLDGIVKAAESIDQKNDSQLVIEAYKSGFEPPGDIEFEDYTQPMKRTVSDNSLSNSRGEGKPDLKFGGKSKGKLWPFIKKNKLMSLLTSPHQPPPPPPASASPSAVPNGPQSPKQQKEPLSHRFNEFMTSKPKIHCFRSLKRGLSLKLGATPEDFSNLPPEQRRKKLQQKVDELNKEIQKEMDQRDAITKMKDVYLKNPQMGDPASLDHKLAEVSQNIEKLRVETQKFEAWLAEVEGRLPARSEQARRQSGLYDSQNPPTVNNCAQDRESPDGSYTEEQSQESEMKVLATDFDDEFDDEEPLPAIGTCKALYTFEGQNEGTISVVEGETLYVIEEDKGDGWTRIRRNEDEEGYVPTSYVEVCLDKNAKDS
modifications: Alexa 488 C5-maleimide
notes: Obtained from Harvey McMahon's lab; also called F-BAR family protein FBP17; FBP17 (Alexa 488); source: E. coli BL21-CodonPlus(DE3)-RIL, purified (GSTrap, size exclusion)
B3: full-length rat endophilin A1 (single-cysteine form) (natural protein, UniProt O35179 1-352, looked up)
chain: MSVAGLKKQFHKATQKVSEKVGGAEGTKLDDDFKEMERKVDVTSRAVMEIMTKTIEYLQPNPASRAKLSMINTMSKIRGQEKGPGYPQAEALLAEAMLKFGRELGDDSNFGPALGEVGEAMRELSEVKDSLDMEVKQNFIDPLQNLHDKDLREIQHHLKKLEGRRLDFDYKKKRQGKIPDEELRQALEKFDESKEIAESSMFNLLEMDIEQVSQLSALVQAQLEYHKQAVQILQQVTVRLCERIRQASSQPRREYQPKPRMSLEFATGDGTQPNGGLSHTGTPKPAGVQMDQPSSRALYDFEPENEGELGFKEGDIITLTNQIDENWYEGMLHGQSGFFPINYVEILVALPH
modifications: Alexa 594 or Alexa 488 C5-maleimide on the small labelled fraction (about 4-10 mol%) mixed with unlabelled protein
notes: endophilin A1, rat, full length, mutated to a single-cysteine form for labeling; also called A1 isoform of endophilin, from rat; full-length endophilin
B4: endophilin ΔH0 mutant (domain or fragment)
chain: GGAEGTKLDDDFKEMERKVDVTSRAVMEIMTKTIEYLQPNPASRAKLSMINTMSKIRGQEKGPGYPQAEALLAEAMLKFGRELGDDCNFGPALGEVGEAMRELSEVKDSLDMEVKQNFIDPLQNLHDKDLREIQHHLKKLEGRRLDFDYKKKRQGKIPDEELRQALEKFDESKEIAESSMFNLLEMDIEQVSQLSALVQAQLEYHKQAVQILQQVTVRLEERIRQASSQPRREYQPKPRMSLEFATGDGTQPNGGLSHTGTPKPAGVQMDQPCCRALYDFEPENEGELGFKEGDIITLTNQIDENWYEGMLHGQSGFFPINYVEILVALPH
modifications: Alexa 594 C5-maleimide on the labelled fraction
B5: third intracellular loop (TIL) of the human β1-adrenergic receptor (aa 246–325) (domain or fragment, UniProt P08588 246-325, looked up)
chain: RVFREAQKQVKKIDSCERRFLGGPARPPSPSPSPVPAPAPPPGPPRPAAAAATAPLANGRAGKRRPSRLVALREQKALKT
modifications: Alexa 488 (5-SDP ester) at the N-terminal on the labelled fraction
notes: β1-adrenergic receptor, human, third intracellular loop, 80 amino acids, aa 246–325; Cloned in pGEX6p1; GST cleaved by PreScission protease; also called TIL-Alexa 488; source: E. coli BL21-CodonPlus(DE3)-RIL, purified (GST Trap, cation exchange)
B6: lamellipodin C-terminal domain fragment LPD^850–1250 with C-terminal His6 tag (domain or fragment, UniProt Q70E73 850-1250, looked up)
chain: PPPSPLSPVPSVVKQIASQFPPPPTPPAMESQPLKPVPANVAPQSPPAVKAKPKWQPSSIPVPSPDFPPPPPESSLVFPPPPPSPVPAPPPPPPPTASPTPDKSGSPGKKTSKTSSPGGKKPPPTPQRNSSIKSSSGAEHPEPKRPSVDSLVSKFTPPAESGSPSKETLPPPAAPPKPGKLNLSGVNLPGVLQQGCVSAKAPVLSGRGKDSVVEFPSPPSDSDFPPPPPETELPLPPIEIPAVFSGNTSPKVAVVNPQPQQWSKMSVKKAPPPTRPKRNDSTRLTQAEISEQPTMATVVPQVPTSPKSSLSVQPGFLADLNRTLQRKSITRHGSLSSRMSRAEPTATMDDMALPPPPPELLSDQQKAGYGGSHISGYATLRRGPPPAPPKRDQNTKLSRDW
modifications: Alexa 647 succinimidyl ester on the labelled fraction
notes: Synthesized and cloned into pGEX6p1 by Biomatik; also called LPD C-terminal domain; source: E. coli BL21-CodonPlus(DE3)-RIL, purified (Ni-NTA agarose, cation exchange); not shown: His6, C-terminal, kept

Tests used:
[1] = biological target: full-length rat endophilin A1 (single-cysteine form) (rat) (UniProt O35179)
[2] = biological target: full-length rat endophilin A1 (single-cysteine form) (rat) (UniProt O35179); assay: client partitioning into condensate droplets (confocal microscopy, apparent partition coefficient); endophilin (25 µM) droplets with 10% PEG; Alexa-labeled client at 250 nM to 1 µM mixed in before PEG; 20 mM HEPES, 150 mM NaCl, 1 mM TCEP, pH 7.4, room temperature; apparent
[3] = biological target: endophilin N-BAR-only mutant (rat); assay: fluorescence intensity ratio of droplets vs. bulk solution (confocal microscopy); 1 µM Alexa 594-labeled variant with 25 µM of the same unlabeled variant, 10% PEG
[4] = biological target: B3; assay: cell-based or functional assay
[5] = biological target: B3; assay: client partitioning into condensate droplets (confocal microscopy, apparent partition coefficient); endophilin (25 µM) droplets with 10% PEG; Alexa-labeled client at 250 nM to 1 µM mixed in before PEG; 20 mM HEPES, 150 mM NaCl, 1 mM TCEP, pH 7.4, room temperature; apparent; settings: both partners purified
[6] = biological target: the molecule itself; assay: fluorescence intensity ratio of droplets vs. bulk solution (confocal microscopy); 1 µM Alexa 594-labeled variant with 25 µM of the same unlabeled variant, 10% PEG

threshold endophilin concentration for LLPS (10% PEG) in the presence of 10 µM client (10 µM without client) [4]	apparent partition coefficient (Kapp) [5]	Molecule	further results
–	–	PRM7-His: heptameric repeat of a lamellipodin proline-rich motif (aa 970–981) joined by (Gly-Gly-Ser)4 linkers (from UniProt Q70E73 970-981; Q70E73 970-981; Q70E73 970-981; Q70E73 970-981; Q70E73 970-981; Q70E73 970-981; Q70E73 970-981) (designed binder)	threshold endophilin concentration for LLPS (10% PEG) in the presence of 10 µM client (10 µM without client) [1]: < 5 µM; apparent partition coefficient (Kapp) [2]: 26
–	–	endophilin N-BAR-only mutant (domain or fragment)	fluorescence intensity ratio inside vs. outside droplets [3]: 1800
–	–	BIN1 isoform 9 (natural protein)	apparent partition coefficient (Kapp) [2]: 267
30 µM	352	B1	–
15 µM	1130	B2	–
–	–	B3	fluorescence intensity ratio inside vs. outside droplets [6]: 480
–	–	B4	fluorescence intensity ratio inside vs. outside droplets [6]: 380
≤ 5 µM	138	B5	–
≤ 5 µM	515	B6	–

Source: publication PMC9418313, “Multivalent interactions between molecular components involved in fast endophilin mediated endocytosis drive protein phase separation” (Nature Communications, 2022)
